First the molecules themselves.
B1: M0102-D07 (Fab, V domains shown)
VH: EVQLLESGGGLVQPGGSLRLSCAASGFTFSRYWMWWVRQAPGKGLEWVSSIGPSGGATRYADSVKGRFTISRDNSKNTLYLQMNSLRAEDTAVYYCTTGSAGNWGQGTLVTVSS
VL: DIQMTQSPGTLSLSPGERATLSCGASQSVSTTYIAWYQHKPGQPPRLLIYGASNRATGIPDRFRGSGSGTDFTLTISRLEPEDFAVYYCQQYGSSPYTFGQGTKLEIKR
B2: M0113-D05 (Fab, V domains shown)
VH: EVQLLESGGGLVQPGGSLRLSCAASGFTFSHYIMMWVRQAPGKGLEWVSSIYPSGGSTIYADSVKGRFTISRDNSKNTLYLQMNSLRAEDTAVYYCASATEGYYYGMDVWGQGTTVTVSS
VL: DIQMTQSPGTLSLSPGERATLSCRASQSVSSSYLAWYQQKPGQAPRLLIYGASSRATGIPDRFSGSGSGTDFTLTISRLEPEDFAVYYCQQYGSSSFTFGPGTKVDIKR
B3: M0131-B05 (Fab, V domains shown)
VH: EVQLLESGGGLVQPGGSLRLSCAASGFTFSHYVMSWVRQAPGKGLEWVSYIYPSGGKTHYADSVKGRFTISRDNSKNTLYLQMNSLRAEDTAVYYCARVGVWYGMDVWGQGTTVTVSS
VL: AQYELTQPASVSGSPGQSITISCTGTSSDIGAYNYVSWYQQHPGKAPKLMIYDVSNRPSGVSNRFSGSKSGNTASLTISGLQAEDEADYYCSSYRSSSLMFGGGTKLTVLG
B4: M0114-G09 (Fab, V domains shown)
VH: EVQLLESGGGLVQPGGSLRLSCAASGFTFSHYAMDWVRQAPGKGLEWVSVIYSSGGKTTYADSVKGRFTISRDNSKNTLYLQMNSLRAEDTAMYYCARVGVWYGMDVWGQGTTVTVSS
VL: AQSALTQPASVSGSPGQSITISCTGTSSDVGSYKLVSWYQQHPGKAPKLMIYEGSKRPSGVSNRFSGSKSGNTASLTISGLQAEDEADYYCCSYAGSSTWVFGGGTKLTVLG
B5: M0108-D11 (Fab, V domains shown)
VH: EVQLLESGGGLVQPGGSLRLSCAASGFTFSWYVMTWVRQAPGKGLEWVSVIYPSGGATKYADSVKGRFTISRDNSKNTLYLQMNSLRAEDTAVYYCARRGAGGMDVWGQGTTVTVSS
VL: AQSVLTQPASVSGSPGQSITISCTGTNTDVGGYNLVSWYQQHPGKAPKLIIYEVSNRPSGVSNRFSGSKSGNTASLTISGLQAEDEVDYYCGSYTSSSTHVFGSGTKVTVLG
B6: M0103-H07 (Fab, V domains shown)
VH: EVQLLESGGGLVQPGGSLRLSCAASGFTFSHYGMYWVRQAPGKGLEWVSSIYPSGGWTNYADSVKGRFTISRDNSKNTLYLQMNSLRAEDTAVYYCARRGSWGAFDIWGQGTMVTVSS
VL: DIQMTQSPSSLSASVGDRVAITCRASQSIDTYLNWYQQKPGKAPKLLIYAASKLEDGVPSRFSGSGTGTDFTLTIRSLQPEDFATYYCQPYNTYPITFGQGTRLEIKR
B7: M0131-D01 (Fab, V domains shown)
VH: EVQLLESGGGLVQPGGSLRLSCAASGFTFSHYNMNWVRQAPGKGLEWVSVIYPSGGQTHYADSVKGRFTISRDNSKNTLYLQMNSLRAEDTAVYYCARRGIWHSFDIWGQGTMVTVSS
VL: DIQMTQSPGTLSLSPGERASLSCRASQSVSSNYLSWYQQKPGQAPRLLIYGTSNRASGIPVRFSGSGSGTDFTLTISRLEPEDFAVYYCQQYGGAPLFIFGPGTRVDIKR
B8: M0106-D06 (Fab, V domains shown)
VH: EVQLLESGGGLVQPGGSLRLSCAASGFTFSYYLMGWVRQAPGKGLEWVSSIGPSGGTTKYADSVKGRFTISRDNSKNTLYLQMNSLRAEDTAVYYCARRGLGAAFDYWGQGTLVTVSS
VL: DIQMTQSPSSVSASVGDRVTITCRASQGISSWLAWYQQKPGKAPKLLIYAASSLQSGVPSRFSGSGSGTDFTLTISSLQPEDFATYYCQQANSFPYTFGQGTKLEIKR
B9: M0110-D06 (Fab, V domains shown)
VH: EVQLLESGGGLVQPGGSLRLSCAASGFTFSWYRMAWVRQAPGKGLEWVSYIGPSGGSTSYADSVKGRFTISRDNSKNTLYLQMNSLRAEDTATYYCARVGTFYGMDVWGQGTTVTVSS
VL: DIQMTQSPSTLSASLGDRVIITCRASQGIRSWLAWYQQKPGKAPKLLIYAASSLQSGVPSRFSGSGSGTDFTLTISSLQPEDFATYYCQQSYSTPWTFGQGTKVEIKR
B10: M0132-C08 (Fab, V domains shown)
VH: EVQLLESGGGLVQPGGSLRLSCAASGFTFSLYFMTWVRQAPGKGLEWVSSISSSGGSTKYADSVKGRFTISRDNSKNTLYLQMNSLRAEDTAVYYCARGGQWLAFDYWGQGTLVTVSS
VL: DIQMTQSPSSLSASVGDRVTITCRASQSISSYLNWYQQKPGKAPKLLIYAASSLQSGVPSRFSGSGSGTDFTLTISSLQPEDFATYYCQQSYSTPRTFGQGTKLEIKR
B11: M0138-A03 (Fab, V domains shown)
VH: EVQLLESGGGLVQPGGSLRLSCAASGFTFSFYLMFWVRQAPGKGLEWVSGIYPSGGQTVYADSVKGRFTISRDNSKNTLYLQMNSLRAEDTAVYYCARAIGAGSSFWGQGTLVTVSS
VL: DIQMTQSPSSVSASVGDRVTITCRASQGISSWLAWYQQKPGKAPKLLIYAASSLQSGVPSRFSGSGSGTDFTLTISSLQPEDFATYYCQQANSFPHTFGQGTKLEIKR
B12: M0135-H01 (Fab, V domains shown)
VH: EVQLLESGGGLVQPGGSLRLSCAASGFTFSAYLMAWVRQAPGKGLEWVSSIRPSGGETRYADSVKGRFTISRDNSKNTLYLQMNSLRAEDTAVYYCTRDQKGYPDSSSFRRYYYYYGMDVWGQGTTVTVSS
VL: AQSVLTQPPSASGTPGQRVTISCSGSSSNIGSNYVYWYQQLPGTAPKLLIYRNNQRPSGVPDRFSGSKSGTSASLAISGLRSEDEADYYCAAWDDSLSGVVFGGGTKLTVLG
B13: M0116-A08 (Fab, V domains shown)
VH: EVQLLESGGGLVQPGGSLRLSCAASGFTFSYYMMGWVRQAPGKGLEWVSSIYTSGGYTKYADSVKGRFTISRDNSKNTLYLQMNSLRAEDTAVYYCARASIYYGMDVWGQGTTVTVSS
VL: DIQMTQSPGTLSLSPGERATLSCRASQSVSNSYLAWYQQRPGQAPRLLIYGASSRATGIPDRFSGSGSGTEFTLTISRLEPEDFAVYYCQQFGSSTGYTFGQGTKLELKR
B14: M0124-C04 (Fab, V domains shown)
VH: EVQLLESGGGLVQPGGSLRLSCAASGFTFSWYLMGWVRQAPGKGLEWVSVIGPSGGLTKYADSVKGRFTISRDNSKNTLYLQMNSLRAEDTAVYYCARFRGYYGMDVWGQGTTVTVSS
VL: not shown

Here are results for 14 molecules from patent US7329737 (DYAX, dated 2008).

Broadly, the Kd is the constant that tells how readily two partners part at equilibrium. What is called koff is a measure of how fast the partners let go of each other. As usually defined, the kon is the rate constant with which the complex forms.

In the assay the target is T1, hK1 (human tissue kallikrein 1), recombinant (human, UniProt P06870 25-262).
T1 construct: Expressed in P. pastoris from KLK1 cDNA and purified; enzymatically active; also called KLK1; Recombinant (Pichia) Kallikrein
Nature of the assay: SPR. In general terms: SPR reads the build-up and loss of mass on a sensor chip optically.
For B1, the equilibrium dissociation constant (Kd) stood at 78.6 nM, the koff was 0.0122 s⁻¹ and the kon was 155000 M⁻¹ s⁻¹.
For B2 the same measures were 152 nM, 0.00214 s⁻¹ and 14100 M⁻¹ s⁻¹.
Turning to B3, the Kd was found to be 0.46 nM, the koff came to 0.000117 s⁻¹ and the kon was 255000 M⁻¹ s⁻¹.
On the same counts, the results for B4 are 1.46 nM, 0.00062 s⁻¹ and 424000 M⁻¹ s⁻¹.
For B5 the same measures were 2.09 nM, 0.00069 s⁻¹ and 330000 M⁻¹ s⁻¹.
On the same counts, the results for B6 are 85.7 nM, 0.0086 s⁻¹ and 100000 M⁻¹ s⁻¹.
For the molecule B7, the dissociation constant Kd amounted to 1.04 nM, the koff was determined as 0.000325 s⁻¹ and the kon came to 311000 M⁻¹ s⁻¹.
B8: the dissociation constant Kd was 123 nM, the koff is 0.019 s⁻¹ and the kon was 154000 M⁻¹ s⁻¹.
On the same counts, the results for B9 are 232 nM, 0.0175 s⁻¹ and 75600 M⁻¹ s⁻¹.
For B10 the same measures were 1.3 nM, 0.000444 s⁻¹ and 342000 M⁻¹ s⁻¹.
With B11, the Kd was found to be 1.71 nM, the koff amounted to 0.000325 s⁻¹ and the kon was found to be 190000 M⁻¹ s⁻¹.
B12: the Kd worked out at 2.03 nM, the koff came to 0.000396 s⁻¹ and the kon is 195000 M⁻¹ s⁻¹.
For B13 the same measures were 88.3 nM, 0.00994 s⁻¹ and 113000 M⁻¹ s⁻¹.
For B14 the same measures were 372 nM, 0.286 s⁻¹ and 768000 M⁻¹ s⁻¹.
